Source: patent publication US20220127365A1 (DREN BIO, published 2022)
Substitutions are numbered along the chain they refer to.

Legend:
[1] = biological target: T1, human CD94 (human, UniProt Q13241 1-179); test: flow cytometry titration (100 nM to 0.046 nM) on healthy-donor PBMCs, CD3-CD56bright NK cells; column 'Affinity on human NK cells (nM)'
T1 construct: whole, on cells; Endogenous CD94 on primary cells (healthy-donor PBMC NK cells, CLPD-NK and T-LGLL patient cells), where it pairs with NKG2A or NKG2C; also called KLRD1; Natural killer cells antigen CD94
T1 sequence (looked up): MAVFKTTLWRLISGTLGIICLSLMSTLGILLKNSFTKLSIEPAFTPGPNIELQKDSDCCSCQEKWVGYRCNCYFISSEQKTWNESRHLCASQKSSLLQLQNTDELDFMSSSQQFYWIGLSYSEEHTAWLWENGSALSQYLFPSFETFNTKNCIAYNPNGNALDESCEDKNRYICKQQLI

[2] = biological target: T1, human CD94; test: HLA-E tetramer blocking on healthy-donor PBMCs, flow cytometry; competitor HLA-E tetramer
Description: (§1) Healthy donor PBMCs were seeded in 96-well plates at a density of 100,000 cells per well, incubated with human Fc block (Biolegend) and cell viability dye (Thermo Fisher) for 30 minutes on ice and protected from light. The cells were washed once with FACS buffer (PBS with 2% IgG low FBS). anti-CD94 antibodies at EC80 concentrations were incubated with cells for 30 minutes on ice and protected from light. After incubation with the anti-CD94 antibodies, the cells were washed and incubated with HLA-E tetramer PE (Creative Biolabs), anti-CD3 pacific blue-labelled, and anti-CD56 FITC-labelled antibodies (Biolegend) for 30 minutes on ice and protected from light. The cells then received a final wash in FACS buffer before quantification on the Cytoflex (Beckman Coulter). All data acquisition and fluorescence compensation were performed using CytoFlex (Beckman Coulter, Atlanta, Ga.). Data analysis was performed using FlowJo software. NK cells were identified through gating on lymphocytes on the forward and side scatter, followed by doublet and dead cell exclusion, and gated on the CD3−CD56+ population. HLA-E expression was then quantified on the CD3−CD56+NK cell population. Percent blocking was calculated as 100−((percent HLA-E positive for anti-CD94 antibody)/(percent HLA-E positive for isotype)*100).
Healthy donor PBMCs were incubated with anti-CD94 antibodies. PE labeled HLA-E tetramer was then incubated with cells and antibody mixture and detected by flow cytometry.
Percent blocking was calculated as 100−((percent HLA-E positive for anti-CD94 antibody)/(percent HLA-E positive for isotype)*100). If an antibody blocked more than 20% of HLA-E binding, it was considered a ligand-blocking antibody.

[3] = biological target: T2, cynomolgus CD94 (cynomolgus monkey); test: flow cytometry on HEK293 cells overexpressing cynomolgus CD94; unconjugated antibody in a dilution series, Alexa Fluor 647 anti-human secondary antibody
T2 construct: whole, on cells; The construct expressed in HEK293 cells is not described further; also called cyno CD94; cynomolgus monkey CD94
Description: For human NK cell binding, PBMCs were freshly isolated from healthy donors and incubated with unconjugated antibodies in a dilution series from 100 nM to 0.046 nM. Secondary anti-human antibody labeled with Alexa Fluor 647 was used to detect binding on CD3−CD56bright NK cells. For cynomolgus CD94 binding, HEK293 cells overexpressing cynomolgus CD94 were incubated with unconjugated antibodies in a dilution series from 100 nM to 0.046 nM. Secondary anti-human antibody labeled with Alexa Fluor 647 was used to detect binding on the cells.

[4] = biological target: T1, human CD94; test: cell-based or functional assay
[5] = biological target: T1, human CD94; test: table column 'HLA-E blocking'; flow cytometry on NK cells of healthy donor PBMCs, antibody at saturating concentration, blocked ligand PE labeled HLA-E tetramer; percent blocking = 100-((percent HLA-E positive with antibody)/(percent HLA-E positive with isotype)*100)
Description: FIGS. 4A & 4B show the results of HLA-E tetramer blocking assays performed with anti-CD94 and commercially available anti-CD94 antibodies using flow cytometry. Healthy donor PBMCs were incubated with anti-CD94 antibodies. PE labeled HLA-E tetramer was then incubated with the cell and antibody mixture, and detected using flow cytometry. For HP-3B1, 131412, 12K45, DX22, 1M4 and 1E4, 2.5 μl of HLA-E tetramer reagent was used, while 5 μl was used for 18H3 and HP-3D9. Saturating concentrations of each antibody was used in this assay. The percent blocking was calculated as 100−((percent HLA-E positive for anti-CD94 antibody)/(percent HLA-E positive for isotype)*100).
as §1

B1: anti-CD94 antibody ATX-125 (antibody, human IgG1, V domains shown)
VH: QVQLQQSGPGLVKPSETLSLTCTVSGGSISSIIYYWGWIRQPPGKGLEWIGSIYYSGSTYYNPSLKSRVTISVDTSKNQFSLNLSSVTAADTAVYYCARLPLTGEFAFDIWGQGTMVTVSS
VL: EIVLTQSPATLSLSPGERATLSCRASQSVSTYLAWFQQKPGQAPRLLIYGASSRATGIPDRFSGSGSGTDFTLTISRLEPEDFAVYYCQQYGSSPITFGQGTRLEIK
What does the source list for B1?
EC50 [1]: 4.63 nM; percent HLA-E blocking [2]: 11%; EC50 (read off the curve) [3]: ~2 nM

B2: anti-CD94 antibody ATX-127 (antibody, human IgG1, V domains shown)
VH: QVQLQQSGPGLVKPSGTLSLTCAVSGGSISSRYWWTWVRQPPGKGLEWIGEIYHSGTTNYNPSLESRVTISVDKSKNQFSLKVSSVTAADTAVYYCARSPNWGYYYYYMDVWGKGTTVTVSS
VL: EIVMTQSPATLSVSPGERATLSCRASQSVSSSYLAWYQQKPGQAPRLLIYGASSRATGIPDRFSGSGSGTDFTLTISRLESEDFAVYYCQQYGRSLTFGGGTKVEIK
What does the source list for B2?
EC50 [1]: 0.31 nM; percent HLA-E blocking [2]: 77%

B3: anti-CD94 antibody ATX-126 (antibody, human IgG1, V domains shown)
VH: QVQLQESGGGLVQPGGSLKLSCAASGFTFSSYSMNWVRQAPGKGLEWVSSISTSSNFIYYADSVKGRFTISRDNSKNTLYLQMNSLRAEDTAVYYCVRDMGPFYSFYYMDVWGNGTTVTVSS
VL: DIQVTQSPATLSLSPGERATLSCRASQSVSSSYLAWYQQKPGQAPRLLIYGASNRATGIPARFSGSGSGTDFTLTISSLQPEDFATYYCLQHNSYPPTFGGGTKVDIK
With B3 as the binder, how does the EC50 [1] read?
The EC50 was 2.52 nM.

And the “percent HLA-E blocking” value [2]?
The value was 0%.

What about the “EC50 (read off the curve)” value [3] of the same binder?
The value was ~2 nM.

B4: anti-CD94 antibody ATX-124 (antibody, human IgG1, V domains shown)
VH: QVQLVQSGAEVKKPGASVKVSCKASGYTFTSYGISWVRQAPGQGLEWMGWISAYNGNTNYAQKLQGRVTMTTDTSTSTAYMEVRSLRSDDTAVYYCARDRGRFGELFFDHWGQGTLVTVSS
VL: DIVMTQSPSSVSASVGDRVTITCRASQGISNYLAWYQQKPGKAPKLLIYAASSLQSGVPSRFSGSGSGTDFTLTISSLQPEDFATYYCLQHNSYPFTFGPGTKVDIK
What does the source list for B4?
EC50 [1]: 10 nM; percent HLA-E blocking [2]: 18%

B5: anti-CD94 antibody ATX-123 (antibody, human IgG1, V domains shown)
VH: B4 VH with L64F, S77N, V83L, F107L, F108S, H110Y
VL: B4 VL
How did the EC50 [1] turn out when B5 was run?
The EC50 was 1.12 nM.

And the “percent HLA-E blocking” value [2]?
Its value is 39%.

B6: anti-CD94 antibody ATX-122 (antibody, V domains shown)
VH: B4 VH with V18L, I34V, M48V, A53P, Q62H, K63N, T69A, V83L, T91M, H110Y
VL: B4 VL
notes: Detected with an anti-human secondary antibody
For B6, which EC50 [1] is on record?
The EC50 was 27 nM.

And the “percent HLA-E blocking” value [2]?
Its value is 0%.

B7: anti-CD94 antibody ATX-129 (antibody, human IgG1, V domains shown)
VH: EVQLVQSGGGLVQPGGSLRLSCAASGFTFSSYWMSWVRQAPGKGLEWVANIKQDGSAKYYVDSVKGRFTISRDNAKNSLYLQMNSLRAEDTAVYYCARGYYFDYWGQGTLVTVSS
VL: EIVLTQSPSTLSASVGDRVTITCRVSQGISSYLNWYRQKPGKVPKLLIYAASSLQSGVPSRFSGSGSGTDFTLTISSLQPEDFATYYCQQSYSTPITFGQGTRLEIK
B7 was tested. Which EC50 [1] did it give?
The EC50 was 2.8 nM.

And the “percent HLA-E blocking” value [2]?
The value was 96%.

B8: 18H3-KIF (antibody, V domains shown)
VH: EVQLVQSGAEVKKPGESLKISCKGSGYRFTSYWIGWVRQMPGKGLEWMGIIYPGDSDTRYSPSFQGQVIISADKSITTAFLQWSSLKASDTAMYYCARPFDYGGSPGYFDYWGQGTLVTVSS
VL: DIQMTQSPSTLSASVGDRVTITCRASQSIRSWLAWYQQKPGKAPKLLIYKASSLESGVPSRFSGSGSGTEFTLTISSLQPDDFATYYCQQYNTFWTFGQGTKVEIK
Which results are given for B8?
IC50 of CLPD-NK leukemic cell depletion, ADCC assay with CLPD-NK patient PBMCs [4]: 0.059 µg/mL; IC50 of NK cell depletion, ADCC assay with healthy donor PBMCs [4]: 0.02 µg/mL

B9: anti-CD94 antibody ATX-128 (antibody, V domains shown)
VH: QVQLQESGGGLVQPGGSLKLSCAASGFTFSGSTIQWVRQASGKGLEWVGRIRSKANSYATASAASVKGRFTISRDDSKNMAYLQMNSLKTEDTAVYYCTREGLGYYNVGYYYFYMDVWGKGTTVTVSS
VL: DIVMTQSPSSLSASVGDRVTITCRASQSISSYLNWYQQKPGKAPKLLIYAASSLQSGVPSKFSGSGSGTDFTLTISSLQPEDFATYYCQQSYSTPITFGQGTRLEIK
Which results are given for B9?
EC50 [1]: 0.32 nM; percent HLA-E blocking [2]: 10%

B10: anti-CD94 antibody 1E4 (antibody, V domains shown)
VH: QVTLRESGPALVKPTQTLTLTCTFSGFSLSTSDLCVSWIRQPPGKALEWLALIDWNDDKYYSTSLQTRLTISKDTSKNQVVLTMTNMDPVDTATYYCARTIAAAGPYDAFDIWGQGTMVTVSS
VL: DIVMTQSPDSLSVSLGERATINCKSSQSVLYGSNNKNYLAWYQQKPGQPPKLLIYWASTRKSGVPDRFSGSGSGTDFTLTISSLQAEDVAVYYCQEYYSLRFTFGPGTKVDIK
notes: Hybridoma antibody from ATX-Gx Alloy transgenic mice; also called fucosylated 1E4
How did the HLA-E blocking [5] turn out when B10 was run?
Its HLA-E blocking is 0%.

B11: anti-CD94 antibody 1M4 (antibody, V domains shown)
VH: QLVESGGGLVQPGGSLRLACAASGFTFSNYAMNWVRQAPGKGLEWVSVISGSGDTTYCADSVKGRFTISRDNSKNTLHLQLNSLRAEDTAVYYCAKNCYGSGSYYNHFDYWGQGTLVTVSS
VL: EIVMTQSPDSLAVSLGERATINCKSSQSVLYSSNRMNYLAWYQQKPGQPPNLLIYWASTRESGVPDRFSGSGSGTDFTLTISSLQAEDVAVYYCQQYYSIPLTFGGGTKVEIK
How did the HLA-E blocking [5] turn out when B11 was run?
The HLA-E blocking was 0%.
